Assay results: IntAct's records for PubMed 14517307

Target: nat1_yeast NAT1 (UniProt P12945)
Sequence (P12945 whole entry): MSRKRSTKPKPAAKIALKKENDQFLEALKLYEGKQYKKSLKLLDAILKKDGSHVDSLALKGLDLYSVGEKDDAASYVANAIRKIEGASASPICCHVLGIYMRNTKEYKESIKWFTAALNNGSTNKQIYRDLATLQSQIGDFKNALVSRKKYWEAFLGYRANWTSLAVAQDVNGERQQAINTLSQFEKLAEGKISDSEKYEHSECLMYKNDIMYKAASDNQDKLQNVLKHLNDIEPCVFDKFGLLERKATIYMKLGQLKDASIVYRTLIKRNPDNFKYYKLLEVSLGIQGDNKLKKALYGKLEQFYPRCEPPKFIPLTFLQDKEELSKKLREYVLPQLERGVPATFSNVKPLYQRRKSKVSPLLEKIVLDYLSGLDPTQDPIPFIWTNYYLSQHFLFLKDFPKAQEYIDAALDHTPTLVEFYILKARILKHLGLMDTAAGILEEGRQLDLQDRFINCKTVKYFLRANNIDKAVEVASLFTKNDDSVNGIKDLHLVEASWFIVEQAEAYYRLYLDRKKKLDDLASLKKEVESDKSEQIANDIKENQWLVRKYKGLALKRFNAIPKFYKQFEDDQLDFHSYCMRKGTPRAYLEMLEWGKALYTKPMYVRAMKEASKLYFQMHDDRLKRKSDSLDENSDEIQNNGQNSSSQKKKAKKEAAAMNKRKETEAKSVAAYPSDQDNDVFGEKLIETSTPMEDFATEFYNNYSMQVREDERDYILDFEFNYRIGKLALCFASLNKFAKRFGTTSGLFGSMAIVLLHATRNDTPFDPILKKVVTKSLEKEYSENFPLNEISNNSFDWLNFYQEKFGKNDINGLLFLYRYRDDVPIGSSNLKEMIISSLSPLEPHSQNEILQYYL

Sequence of Large ribosomal subunit protein uL4A (Saccharomyces cerevisiae), P10664 S2K (P10664 whole entry S2K): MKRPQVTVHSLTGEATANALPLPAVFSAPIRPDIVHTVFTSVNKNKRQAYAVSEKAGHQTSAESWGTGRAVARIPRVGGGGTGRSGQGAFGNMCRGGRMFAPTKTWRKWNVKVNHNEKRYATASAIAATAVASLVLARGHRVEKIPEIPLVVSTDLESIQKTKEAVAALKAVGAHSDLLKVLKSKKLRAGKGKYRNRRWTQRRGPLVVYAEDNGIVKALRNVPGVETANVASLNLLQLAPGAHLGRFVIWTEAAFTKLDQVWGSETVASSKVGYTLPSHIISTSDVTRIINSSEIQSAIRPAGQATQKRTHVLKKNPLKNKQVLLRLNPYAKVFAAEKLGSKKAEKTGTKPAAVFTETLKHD

effect of a mutation on the interaction: increasing interaction
Substance: Large ribosomal subunit protein uL4A (Saccharomyces cerevisiae), P10664 S2K
